Target: ASC (UniProt Q9ULZ3)
Experiment: EMSA
Settings: EMSA: 100 mM Tris, 500 mM NaCl, 10 mM DTT, pH 7, 15°C 30 min; 3-5 μg DNA, 0.2-0.65 μg recombinant protein or 5 μg nuclear extract; 6% native PAGE

Sequence of ASC (Q9ULZ3 whole entry): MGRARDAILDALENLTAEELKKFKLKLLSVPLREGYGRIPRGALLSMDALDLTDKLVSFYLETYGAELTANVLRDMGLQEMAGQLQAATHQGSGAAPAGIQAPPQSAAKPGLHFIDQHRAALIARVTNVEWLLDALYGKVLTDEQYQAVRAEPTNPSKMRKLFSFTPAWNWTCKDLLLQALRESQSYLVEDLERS

ATTTATATAGCTTCTCAGCCTCGAATGTGGAAATAGGTGACTCATTTGAGTGTTTTCTTTCTTTTTAGAGTCTACAGAACTTTGAAAGTATGTGTTATTTTTCATTAACTAAAACGAGGAAGTATTACATCGTTATTGGCAGGAAGCACACAATGTATTTGTCTTTCAAAGGATTTTTTTTTCTGTCTGCTGCATAAATTGACTCCATGAGAAACCTCATTTTTTTGCCAAAGTCAAATGACTGCTCTCATAGGTATCA (double strand) [MMP7 promoter P1]
binding: binds

From article PMC5061333
